US20070231333A1, “ANTI-5T4 ANTIBODIES AND USES THEREOF” (Wyeth, priority 2006, published 2007)

How the values were obtained:
[1] = target: T1, 5T4-expressing PC14PE6 cells (Homo sapiens, UniProt Q13641); assay: FACS binding to 5T4-expressing PC14PE6 cells; type: cell-based
T1 construct: endogenous in cells; host or cells: PC14PE6 cells
T1 sequence (Q13641 32-420): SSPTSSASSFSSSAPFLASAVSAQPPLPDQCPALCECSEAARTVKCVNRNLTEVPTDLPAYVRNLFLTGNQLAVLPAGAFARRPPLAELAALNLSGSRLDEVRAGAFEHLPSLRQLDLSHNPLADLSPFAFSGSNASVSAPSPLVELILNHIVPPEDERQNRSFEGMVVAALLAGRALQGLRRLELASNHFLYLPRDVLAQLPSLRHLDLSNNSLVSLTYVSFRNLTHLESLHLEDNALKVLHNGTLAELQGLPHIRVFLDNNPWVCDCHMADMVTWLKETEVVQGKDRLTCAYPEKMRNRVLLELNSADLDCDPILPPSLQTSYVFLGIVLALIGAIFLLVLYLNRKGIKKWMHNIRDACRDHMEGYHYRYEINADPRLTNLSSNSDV
Description: The ability of the H8, A1, A2, and A3 antibodies to bind cells expressing 5T4 antigen was assayed using fluorescence activated cell sorting (FACS) of PC14PE6 cells.

[2] = target: T2, human 5T4 ectodomain Fc fusion protein (Homo sapiens, UniProt Q13641); assay: Competitive binding assay with biotinylated humanized H8 antibody; settings: FIGS. 6A-6B
T2 construct: Human; 100; 1-355; made in house; host or cells: COS-1 cells (transient)
T2 sequence (Q13641 32-355): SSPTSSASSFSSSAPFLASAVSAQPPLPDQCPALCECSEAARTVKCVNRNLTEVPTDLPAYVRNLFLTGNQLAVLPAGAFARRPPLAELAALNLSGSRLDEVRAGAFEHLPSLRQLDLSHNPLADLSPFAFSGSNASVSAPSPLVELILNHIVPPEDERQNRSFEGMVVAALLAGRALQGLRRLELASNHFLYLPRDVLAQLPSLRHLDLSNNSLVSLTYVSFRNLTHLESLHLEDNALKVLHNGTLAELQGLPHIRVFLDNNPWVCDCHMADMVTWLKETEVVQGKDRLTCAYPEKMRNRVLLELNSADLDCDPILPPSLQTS
Description: FIGS. 6A-6B show graphical results of competitive binding of humanized H8 and each of the indicated antibodies to human 5T4 ectodomain Fc fusion protein. HuH8, humanized H8 antibody; ChiA1, chimeric A1 antibody; ChiA1+C67F, chimeric A1 antibody bearing C67F mutation; ChiA2, chimeric A2 antibody; muA2, murine A2 antibody; ChiA3, chimeric A3 antibody; ChiA3+C91Y, chimeric A3 antibody bearing C91Y mutation, muA3, murine A3 antibody; No Ab, no antibody (control).
In addition to direct binding assays, competitive binding assays were performed using biotinylated humanized H8 antibody and each of the A1, A2, or A3 antibodies. Inhibition of binding to human 5T4 was not observed, supporting that each of A1, A2, and A3 binds to a 5T4 epitope that is distinct from that bound by the H8 antibody.

- binding to 5T4-expressing PC14PE6 cells (in words) [1]: significantly lower
- inhibition of binding of biotinylated humanized H8 to human 5T4 [2]: not observed
B1: A2: murine anti-5T4 monoclonal antibody (IgG2b heavy chain); VH residues 19-135 of SEQ ID NO:6, VL residues 23-130 of SEQ ID NO:8 (antibody, listed as Mus musculus, V domains shown)
VH: MEWRIFLFILSGTAGVHSQVQLQQSRPELVKPGASVKMSCKASGYTFTDYVISWVKQRTGQGLEWIGEIYPGSNSIYYNEKFKGRATLTADKSSSTAYMQLSSLTSEDSAVYFCAMGGNYGFDYWGQGTTLTVSS
VL: MDFQVQIFSFLLISASVIMSRGQIVLTQSPAIMSASLGERVTLTCTASSSVNSNYLHWYQQKPGSSPKLWIYSTSNLASGVPARFSGSGSGTSYSLTISSMEAEDAATYYCHQYHRSPLTFGAGTKLELK
modifications: (1)..(18) leader sequence; (19)..(135) heavy chain variable region; (44)..(53) CDR1; (68)..(84) CDR2; (117)..(124) CDR3; (1)..(22) leader sequence; (23)..(130) light chain variable region; (46)..(56) CDR1; (73)..(79) CDR2; (112)..(120) CDR3
